Experimental findings from patent US20240270857A1 (CHIA TAI TIANQING PHARMACEUTICAL GROUP, published 2024) are described below.

Like-named read-outs stand apart in the source and are kept apart here.

Assay [1] addresses T1, IL-36R naturally expressed on OVCAR8 cells and on normal human epidermal keratinocytes (NHK cells) (human, UniProt Q9HB29 20-575).
T1 sequence (looked up): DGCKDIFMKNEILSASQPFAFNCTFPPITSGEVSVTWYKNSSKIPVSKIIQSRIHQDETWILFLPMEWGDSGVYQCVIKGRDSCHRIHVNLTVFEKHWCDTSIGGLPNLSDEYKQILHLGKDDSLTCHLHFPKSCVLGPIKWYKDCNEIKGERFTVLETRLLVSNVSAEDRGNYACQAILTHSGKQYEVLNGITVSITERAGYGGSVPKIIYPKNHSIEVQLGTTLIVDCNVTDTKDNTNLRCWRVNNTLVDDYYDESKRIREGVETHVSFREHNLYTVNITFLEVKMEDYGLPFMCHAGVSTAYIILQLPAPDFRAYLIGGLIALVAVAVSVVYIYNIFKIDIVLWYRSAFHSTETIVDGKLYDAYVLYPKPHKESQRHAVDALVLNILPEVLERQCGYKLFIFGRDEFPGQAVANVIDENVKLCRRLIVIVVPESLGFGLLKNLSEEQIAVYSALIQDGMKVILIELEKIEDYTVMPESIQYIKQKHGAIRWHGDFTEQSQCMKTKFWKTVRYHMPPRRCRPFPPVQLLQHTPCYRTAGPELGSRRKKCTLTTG
Description: cell-based or functional assay.

The target in assay [2] is T2, CynoIL36R-ECD mFc recombinant protein (cynomolgus monkey).
T2 construct: Made in ExpiCHO, purified on Protein A; also called cynomolgus IL-36R extracellular region with mouse antibody heavy chain Fc
T2 chain: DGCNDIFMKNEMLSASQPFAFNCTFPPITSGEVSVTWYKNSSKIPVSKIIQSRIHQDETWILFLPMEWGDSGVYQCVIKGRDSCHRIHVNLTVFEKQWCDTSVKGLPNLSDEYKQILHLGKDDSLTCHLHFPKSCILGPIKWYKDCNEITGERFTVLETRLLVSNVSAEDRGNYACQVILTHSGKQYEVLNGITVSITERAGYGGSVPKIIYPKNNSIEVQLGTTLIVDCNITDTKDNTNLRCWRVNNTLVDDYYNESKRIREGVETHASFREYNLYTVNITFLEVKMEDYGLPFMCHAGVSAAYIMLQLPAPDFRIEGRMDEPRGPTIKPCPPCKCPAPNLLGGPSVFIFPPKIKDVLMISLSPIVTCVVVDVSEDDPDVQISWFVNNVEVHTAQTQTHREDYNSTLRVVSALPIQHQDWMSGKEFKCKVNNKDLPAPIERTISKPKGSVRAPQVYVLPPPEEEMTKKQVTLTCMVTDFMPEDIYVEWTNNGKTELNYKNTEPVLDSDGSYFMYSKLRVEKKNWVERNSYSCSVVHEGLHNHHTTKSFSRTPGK
Description: ELISA, plate coated with CynoIL36R-ECD mFc, HRP-protein A/G, OD450. The procedure: The binding activity of anti-IL-36R antibodies to IL-36R was analyzed by ELISA using human IL-1Rrp2/IL-1R6 protein, His Tag (ACROBiosystems, IL2-H52H6) and CynoIL36R-ECD mFc (for detection of chimeric and humanized antibodies), and hIL36R-ECD hFc and CynoIL36R-ECD hFc protein (for detection of hybridoma antibodies) as antigens. A 96-well plate (Costar, 9018) was coated with 2 μg/mL antigen at 100 μL/well and incubated overnight at 4° C. After the 96-well plate was washed with a washing buffer (PBS containing 0.05% v/v Tween 20), a blocking buffer (PBS containing 2% bovine serum albumin) was added for blocking at 37° C. for 2 h. After the 96-well plate was washed with the washing buffer, 100 μL of the gradient diluted anti-IL-36R antibody of the present disclosure or the reference antibody BI655130 (the initial concentration of the antibody was 66 nM, 4-fold gradient dilution) was added to each well, and the plate was incubated at room temperature for 1 h. After the 96-well plate was washed with the washing buffer, 100 μL of horseradish peroxidase-conjugated recombinant protein A/G (TheroScientific, 32490) was added to each well, and the plate was incubated at room temperature for 1 h. After the 96-well plate was washed with the washing buffer, 100 μL of a TMB solution (Thermo, 00-4201-56) was added to each well, and the plate was incubated at room temperature for 2 min. Finally, 100 μL of a stop solution (2 N H₂SO₄) was added to each well to stop the reaction. Absorbance was read at 450 nm using a microplate reader (PE, Envision), the resulting data was analyzed using GraphPad Prism, and EC₅₀ was calculated. Binding EC₅₀ of the chimeric anti-IL-36R antibodies to hIL-36R in an ELISA assay is shown in FIG. 1. and binding EC₅₀ of the chimeric anti-IL-36R antibodies to CynoIL-36R in an ELISA assay is shown in FIG. 2. The binding of BI655130 is shown as a control, and the binding of IgG4 is shown as a negative control.

Assay [3] addresses T3, human IL-36R overexpressed on 293T-hIL36R-NFκB cells (human, UniProt Q9HB29 20-575).
T3 construct: Entry includes the signal peptide; also called IL1RL2; IL-1Rrp2
T3 sequence: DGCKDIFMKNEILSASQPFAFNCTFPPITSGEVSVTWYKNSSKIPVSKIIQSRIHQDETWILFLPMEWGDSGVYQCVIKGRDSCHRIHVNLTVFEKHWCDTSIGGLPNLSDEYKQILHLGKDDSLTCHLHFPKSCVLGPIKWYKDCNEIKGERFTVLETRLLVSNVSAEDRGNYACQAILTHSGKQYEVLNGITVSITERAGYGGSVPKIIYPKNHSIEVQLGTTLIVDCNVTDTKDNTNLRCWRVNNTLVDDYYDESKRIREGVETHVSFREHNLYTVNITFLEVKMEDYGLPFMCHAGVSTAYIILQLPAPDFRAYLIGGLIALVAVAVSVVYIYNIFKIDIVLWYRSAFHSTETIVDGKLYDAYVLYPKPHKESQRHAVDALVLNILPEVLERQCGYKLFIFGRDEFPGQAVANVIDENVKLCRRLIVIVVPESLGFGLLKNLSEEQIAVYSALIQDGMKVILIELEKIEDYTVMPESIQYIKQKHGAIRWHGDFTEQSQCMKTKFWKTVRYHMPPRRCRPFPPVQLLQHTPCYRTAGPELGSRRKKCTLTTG
Description: FACS on 293T-hIL36R-NFκB cells, ratio of MFI to background MFI. The procedure:
After the cells was washed with PBS, the cells were resuspended with 100 μL of PBS and then the fluorescence signal was detected using a flow cytometer (BD, Accuri C6). […] The ratio was the ratio of mean fluorescence intensity (MFI) of the experimental group/the background MFI, and the resulting data were analyzed using GraphPad Prism.

Assay [4] deals with T1, IL-36R naturally expressed on OVCAR8 …. Description: cell-based or functional assay. The source holds these as a separate data set.
The target is the same in assay [5]. Description: cell-based or functional assay. The source holds these as a separate data set.
Assay [6] addresses T3, human IL-36R overexpressed on …. The assay can be described thus: cell-based or functional assay.
The target is the same in assay [7]. The assay can be described thus: cell-based or functional assay. The source holds these as a separate data set.
Assay [8] concerns the target T1, IL-36R naturally expressed on OVCAR8 …. The assay can be described thus: cell-based or functional assay. This is another data set of the same source.
Assay [9] shares this target. Description: cell-based or functional assay. The source holds these as a separate data set.

B1: BI655130 (antibody, human IgG1, kappa, L234A L235A)
heavy: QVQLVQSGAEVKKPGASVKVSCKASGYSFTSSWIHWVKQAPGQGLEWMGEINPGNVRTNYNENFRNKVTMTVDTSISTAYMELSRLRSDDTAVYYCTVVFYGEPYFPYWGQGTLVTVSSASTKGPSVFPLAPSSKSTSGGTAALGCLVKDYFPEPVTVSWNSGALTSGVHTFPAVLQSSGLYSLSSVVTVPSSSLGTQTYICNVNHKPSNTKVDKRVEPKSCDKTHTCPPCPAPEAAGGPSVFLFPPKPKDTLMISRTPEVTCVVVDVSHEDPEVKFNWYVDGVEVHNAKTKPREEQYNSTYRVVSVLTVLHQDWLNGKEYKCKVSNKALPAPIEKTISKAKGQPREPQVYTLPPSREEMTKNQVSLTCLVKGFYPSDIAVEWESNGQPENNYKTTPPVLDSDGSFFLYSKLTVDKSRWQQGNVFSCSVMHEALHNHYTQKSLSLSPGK
light: QIVLTQSPGTLSLSPGERATMTCTASSSVSSSYFHWYQQKPGQAPRLWIYRTSRLASGVPDRFSGSGSGTDFTLTISRLEPEDAATYYCHQFHRSPLTFGAGTKLEIKRTVAAPSVFIFPPSDEQLKSGTASVVCLLNNFYPREAKVQWKVDNALQSGNSQESVTEQDSKDSTYSLSSTLTLSKADYEKHKVYACEVTHQGLSSPVTKSFNRGEC
notes: also called Spesolimab
Regarding B1, the “IC50; IL-8 production of OVCAR8 cells stimulated with hIL36γ, inhibition rate %” value worked out at 40.5 pM in [1] and 59.2 pM in assay [5]. For the same molecule, the figures for the EC50 in assay [2] and in [3] were 1890 pM and 7020 pM, respectively. For the same molecule, the “IC50; IL-8 production of NHK cells stimulated with hIL36α, inhibition rate %” value in assay [4] was 74.1 pM. In addition, the “IC50; NFκB-luciferase reporter in 293T-hIL36R-NFκB cells stimulated with hIL36γ, inhibition rate %” value in assay [6] came to 4740 pM. Further, the “IC50; NFκB-luciferase reporter in 293T-hIL36R-NFκB cells stimulated with hIL36α, inhibition rate %” value in assay [7] is 6090 pM. Besides, in assay [8], the “IC50; IL-8 production of OVCAR8 cells stimulated with hIL36α, inhibition rate %” value worked out at 92.7 pM. Further, the “IC50; IL-8 production of OVCAR8 cells stimulated with hIL36β, inhibition rate %” value in [9] came out at 75.5 pM.

B2: chimeric 84C4 antibody (antibody, human IgG4 S228P, kappa)
heavy: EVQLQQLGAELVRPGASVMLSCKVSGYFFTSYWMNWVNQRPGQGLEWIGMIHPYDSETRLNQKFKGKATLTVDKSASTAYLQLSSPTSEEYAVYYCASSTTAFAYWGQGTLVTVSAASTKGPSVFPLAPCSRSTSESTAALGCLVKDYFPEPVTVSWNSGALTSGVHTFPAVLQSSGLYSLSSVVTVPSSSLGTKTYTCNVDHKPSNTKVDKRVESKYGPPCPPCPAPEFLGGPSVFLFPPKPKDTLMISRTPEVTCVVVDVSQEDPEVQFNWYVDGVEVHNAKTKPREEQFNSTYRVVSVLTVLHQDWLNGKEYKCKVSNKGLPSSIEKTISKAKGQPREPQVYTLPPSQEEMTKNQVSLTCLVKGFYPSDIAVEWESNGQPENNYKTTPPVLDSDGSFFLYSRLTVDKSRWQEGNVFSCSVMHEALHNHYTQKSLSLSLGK
light: DILMTQSPSSLSASLGERVSLTCRASQDIGNALNWLQQAPDGTIKRLIYATSSLDPGVPKRFSGSRSGSDYSLTISSLASEDFVYYYCLQYASSPYTFGGGTKLEIKRTVAAPSVFIFPPSDEQLKSGTASVVCLLNNFYPREAKVQWKVDNALQSGNSQESVTEQDSKDSTYSLSSTLTLSKADYEKHKVYACEVTHQGLSSPVTKSFNRGEC
notes: Mouse variable regions on human IgG4 / kappa; also called xi84C4
B2: in assay [2], the EC50 is 21900 pM. Also, the “IC50; IL-8 production of OVCAR8 cells stimulated with hIL36γ, inhibition rate %” value in assay [5] amounted to 18.1 pM. In assay [7], the “IC50; NFκB-luciferase reporter in 293T-hIL36R-NFκB cells stimulated with hIL36α, inhibition rate %” value worked out at 3250 pM. In addition, in assay [8], the “IC50; IL-8 production of OVCAR8 cells stimulated with hIL36α, inhibition rate %” value was determined as 18.1 pM.

B3: chimeric 72C1 antibody (antibody, human IgG4 S228P, kappa)
heavy: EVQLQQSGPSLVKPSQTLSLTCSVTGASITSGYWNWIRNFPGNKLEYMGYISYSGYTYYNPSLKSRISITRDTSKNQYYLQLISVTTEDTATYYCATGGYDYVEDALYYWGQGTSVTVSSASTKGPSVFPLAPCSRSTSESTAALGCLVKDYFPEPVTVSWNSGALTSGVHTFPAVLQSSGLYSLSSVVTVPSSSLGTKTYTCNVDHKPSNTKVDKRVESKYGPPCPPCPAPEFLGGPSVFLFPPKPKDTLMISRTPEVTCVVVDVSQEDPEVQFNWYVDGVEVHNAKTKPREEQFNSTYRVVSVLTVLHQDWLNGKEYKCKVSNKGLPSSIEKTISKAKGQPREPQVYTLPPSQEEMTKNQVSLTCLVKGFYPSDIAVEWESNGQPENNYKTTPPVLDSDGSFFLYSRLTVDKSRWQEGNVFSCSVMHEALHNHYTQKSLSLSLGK
light: EILLTQSPAIMSATLGEKVTMSCRASSNVRYMYWYQLKSGASPKLWIYLTSNLASGVPARFSGSGSGTSYSLTISSVEAEDAATYFCQQFTTSPYTFGGGTKLEIKRTVAAPSVFIFPPSDEQLKSGTASVVCLLNNFYPREAKVQWKVDNALQSGNSQESVTEQDSKDSTYSLSSTLTLSKADYEKHKVYACEVTHQGLSSPVTKSFNRGEC
notes: Mouse variable regions on human IgG4 / kappa; also called xi72C1
As for B3, in assay [1], the “IC50; IL-8 production of OVCAR8 cells stimulated with hIL36γ, inhibition rate %” value stood at 55.5 pM. Also, the EC50 is 3020 pM in assay [2] and 6480 pM in assay [3]. In addition, the “IC50; IL-8 production of NHK cells stimulated with hIL36α, inhibition rate %” value in assay [4] is 159 pM. The “IC50; NFκB-luciferase reporter in 293T-hIL36R-NFκB cells stimulated with hIL36γ, inhibition rate %” value in assay [6] is 10500 pM. In assay [9], the “IC50; IL-8 production of OVCAR8 cells stimulated with hIL36β, inhibition rate %” value stood at 116 pM.

As usually defined, the EC50 is the midpoint of the concentration-response curve.
